Residue numbers refer to the chain shown, from its start.
B1: ACI-7071-809D9-Ab2 (antibody, mouse IgG2b, V domains shown)
VH: QVQLQQSGAELVRPGVSVKISCKGSGYKFTDYSMHWVKQSHTKSLEWIGVISTYYGDTTYNQKFKGKATITVDKSSSTAYMELARLTSEDSAIYYCATYGNFPASFSYWGQGTLVTVSA
VL: DIVMTQAAPSIPVTPGESVSISCRSSKSLLHSNGNTYLYWFLQRPGQSPQLLIYRMSNLASGVPDRFSGSGSGTAFTLRISRVEAEDVGVYYCMQHLEYPFTFGSGTKLEIK
notes: Mouse IgG2b, kappa, from hybridoma; also called 809D9C2
B2: ACI-7071-809F12-Ab1 (antibody, mouse IgG2b, V domains shown)
VH: QVQLKESGPGLVAPSQSLSITCTVSGFSLNRNGVQWVRQPPGKGLEWLGVIWPGGSTNCNSALMSRLSISKDNSKSQVFLKMNSLHTDDTGIYYCARVGGNYVWDYNNYAWGQGTLVTVSA
VL: DVLMTQTPLSLPVSLGDQASISCRSSQNIVHSIGNTYLEWYLQKPGQSPKLLIYKVSNRFSGVPDRFSGSGSGTDFTLKISRVEAEDLGVYYCFQGSHVPYTFGGGTKLEIR
notes: Mouse IgG2b, kappa, from hybridoma; also called 809F12D8
B3: ACI-7069-641H1-Ab2 (antibody, mouse IgG2b, V domains shown)
VH: QVQLKESGPGLVAPSQSLSITCTVSGFSLTNYGVHWVRQPPGKGLEWLGLMWAGGSTNYNSALMSRLSISKDNSKSQVFLKMNSLQTDDTAMYYCVIYRTGFAYWGQGTLVTVSA
VL: B2 VL with N28S, S32T, Y101F, G105S, R112K
notes: Mouse IgG2b, kappa, from hybridoma; also called 641H1E7
B4: ACI-7069-646B7-Ab1 (antibody, mouse IgG2b, V domains shown)
VH: B3 VH with Y32F, L50I, R99K
VL: B2 VL with N28S, S32A, Y101F, G105S, R112K
notes: Mouse IgG2b, kappa, from hybridoma; also called 646B7F7
B5: ACI-7069-634H10-Ab2 (antibody, mouse IgG2b, V domains shown)
VH: EVQLQQSGAELVKPGASVRLSCTASGFNIKDTYMHWVKQRPEQGLEWIGRIDPANSNTKFDPKFQGKATITSDTSSNTAYLQLSSLTSEDTAVYYCARFYGGSHWYFDVWGAGTTVTVSS
VL: DIKMTQSPSSMYASLGERVTITCKASQDIKSYLSWYQHKPWKSPKALIYYATSLADGVPSRFSGSGSGQDYSLTISSLESDDTATYYCLQQGESPYTFGGGTKLEIK
notes: Mouse IgG2b, kappa, from hybridoma; also called 634H10H7
B6: ACI-7069-642D12-Ab1 (IgG2a variant) (antibody, V domains shown)
VH: EVQLQQSGAELVKPGASVRLSCTASGFNIKDPYMHWVRQRPKQGLEWIGRIDPADGNTKYDPKFQGKATLTADTSSNVAYLHLSSLTSEDTAVYYCARFYGSSHWYFDVWGAGTTVTVSS
VL: B5 VL with S31R, H38Q, A46I, S65T, T83V
notes: Recombinantly produced mouse IgG2a isotype; also called 642D12B4 *; ACI-7069-642D12-Ab1 (IgG2a isotype)

How the values were obtained:
[1] = biological target: T1, recombinant human full-length TDP-43 (TAR DNA-binding protein 43), soluble (human, UniProt Q13148 1-414); assay: SPR, immobilized soluble TDP-43
T1 construct: Used on Luminex beads, coated on ELISA plates, and immobilized or injected in SPR; also called FL TDP-43; TDP-43 protein
Description: (§1) Binding avidity to soluble or aggregated FL TDP-43 was evaluated by determing the dissociation constants (KD) using surface plasmon resonance (SPR; Biacore T200, GE Healthcare Life Sciences). Recombinant human soluble or aggregated FL TDP-43 were immobilized on a CM5 Series S sensor chip (GE Healthcare Life Sciences) by amine coupling. Soluble TDP-43 was immobilized at a concentration of 5 µg/ml in 10 mM sodium acetate (pH 4.5) with a flow rate of 5 µl/min for 420 seconds resulting in an immobilization level of 150 RU. Aggregated TDP-43 was immobilized at a concentration of 50 µg/ml in 10 mM sodium acetate (pH 4.5) with a flow rate of 5 µl/min for 840 seconds resulting in an immobilization level of 110 RU. Biotinylated TP-73 peptide (aa 181-190 of SEQ ID NO:1) was immobilized on a Series S Sensor Chip SA (GE Healthcare Life Sciences) at a concentration of 5 µg/ml in PBS-P⁺ with a flow rate of 5 µl/min for 30 seconds resulting in an immobilization level of 400 RU. […] The antibodies were injected at a flow rate of 50 µl/min for 90 seconds contact time and 700 seconds dissociation phase followed by three regenerations with 10 mM glycine-HCl pH 1.7. For the optimized SPR protocol the antibodies were diluted 3-fold starting from 300 nM and dilute down to 1.2 nM and injected for 300 seconds at 30 µl/min followed by 600 seconds dissociation. The surface was regenerated by one injection with 10 mM glycine-HCl pH 1.7. Results obtained from binding kinetics were double-referenced using a blank flow cell and a buffer cycle and were evaluated with a global 1:1 fitting model with RI. Avidities for 11 antibodies and two Fab fragments are depicted in Table 8. […] In addition, some antibodies show preferential binding to aggregated TDP-43 as compared with soluble TDP-43.

[2] = biological target: T2, recombinant human aggregated full-length TDP-43 (human, UniProt Q13148 1-414); assay: SPR, immobilized aggregated TDP-43
T2 construct: also called aggregated TDP-43; aggregated FL TDP-43
Description: as §1

[3] = biological target: T1, recombinant human full-length TDP-43 …; assay: Luminex, FL TDP-43 on beads
Description: Mice were euthanized and fusion with myeloma cells was performed using splenocytes from four individual mice. Screening for antibodies from the successfully fused hybridoma cell lines were performed as follows. Diluted (1:32) cell culture supernatants were analyzed using Luminex bead-based multiplex assay (Luminex, The Netherlands). Luminex beads were conjugated to FL TDP-43 and with capturing IgGs with anti-mouse IgG-Fc antibodies specific for the IgG1, IgG2a, IgG2b, IgG2c, and IgG3 subclasses (Jackson Immunoresearch, USA). Binding to beads conjugated to FL TDP-43 identified 386 hits derived from mice immunized with the FL TDP-43 liposomal vaccine.
Luminex assays with serial dilution of antibodies were performed as described before to determine half maximal effective concentration (EC50) of binding of antibodies to FL TDP-43. In summary, all tested antibodies bind to full length TDP-43 with high affinity.

[4] = biological target: T1, recombinant human full-length TDP-43 …; assay: indirect ELISA, coated FL TDP-43
Description: Antibody binding to human FL TDP-43 was determined using an indirect ELISA. ELISA plate coating with 1 µg/ml human FL TDP-43 was performed overnight in carbonate buffer at 4° C. Plates were washed with 0.05% Tween-20/PBS and then blocked with 1% bovine serum albumin (BSA) in 0.05% Tween-20/PBS for 1 hour at 37° C. Antibodies purified from hybridoma supernatants were then added in a 3-fold serial dilution starting at 1 µg/ml, and incubated for 2 hours at 37° C. after which the plates were washed. An AP-conjugated anti-mouse IgG secondary antibody (Jackson Immunoresearch Laboratories, United Kingdom) was added at 1/1000 dilution in 0.05% Tween-20/PBS for 1 hour at 37° C. After the final wash, plates were incubated with pNPP (Sigma-Aldrich, Switzerland) phosphatase substrate solution, and read at 405 nm using an ELISA plate reader (Tecan, Switzerland).

[5] = biological target: T1, recombinant human full-length TDP-43 …; assay: SPR, mAb captured, FL TDP-43 injected; mean
Description: Binding affinity to soluble FL TDP-43 was evaluated by determing the dissociation constants (KD) using surface plasmon resonance (SPR; Biacore T200, GE Healthcare Life Sciences). Goat-anti mouse capture antibody was immobilized on a CM5 Series S sensor chip (GE Healthcare Life Sciences) by amine coupling. Antibodies were captured at a concentration of 2-5 µg/ml in PBS-P⁺ (GE Healthcare Life Sciences) with a flow rate of 10 µl/min for 120 seconds resulting in a capture level of 350-1000 RU. […] Dissociation was recorded for 1 h followed by one regeneration with 10 mM glycine-HCl pH 1.7. Results obtained from binding kinetics were double-referenced using a blank flow cell and a buffer cycle and were evaluated with a global 1:1 fitting model with RI.

[6] = biological target: T2, recombinant human aggregated …; assay: SPR optimized protocol, immobilized aggregated TDP-43
[7] = biological target: T1, recombinant human full-length TDP-43 …; assay: SPR optimized protocol, immobilized soluble TDP-43

T1 sequence (Q13148 whole entry): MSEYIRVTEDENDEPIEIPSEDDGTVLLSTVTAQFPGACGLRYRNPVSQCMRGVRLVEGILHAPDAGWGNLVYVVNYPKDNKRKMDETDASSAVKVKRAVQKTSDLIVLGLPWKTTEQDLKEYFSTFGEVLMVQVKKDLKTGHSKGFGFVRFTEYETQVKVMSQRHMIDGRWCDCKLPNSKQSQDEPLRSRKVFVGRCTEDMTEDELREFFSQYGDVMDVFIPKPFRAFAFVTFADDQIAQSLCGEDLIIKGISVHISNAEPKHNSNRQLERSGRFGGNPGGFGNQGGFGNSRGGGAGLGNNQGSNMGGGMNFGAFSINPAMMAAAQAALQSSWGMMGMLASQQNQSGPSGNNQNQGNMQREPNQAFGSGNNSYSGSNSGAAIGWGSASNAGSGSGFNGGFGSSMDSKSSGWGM
T2 sequence (Q13148 whole entry): as above

Binder | Kd [1] [nM] | koff [1] [s⁻¹] | kon [1] [M⁻¹ s⁻¹] | Kd [2] [nM] | koff [2] [s⁻¹] | kon [2] [M⁻¹ s⁻¹] | EC50 [3] [nM] | EC50 [4] [µg/mL] | Kd [5] [nM] | koff [5] [s⁻¹] | kon [5] [M⁻¹ s⁻¹] | Kd [6] [nM] | koff [6] [s⁻¹] | kon [6] [M⁻¹ s⁻¹] | Kd [7] [nM] | koff [7] [s⁻¹] | kon [7] [M⁻¹ s⁻¹]
B1 | 10.6 | 0.000821 | 77100 | 2.25 | 0.000216 | 95900 | < 0.01 | 0.017 | – | – | – | – | – | – | – | – | –
B2 | 1.68 | 0.000167 | 99400 | 0.81 | 7.63e-05 | 94700 | < 0.01 | 0.014 | 0.423 | 1.36e-05 | 32000 | – | – | – | – | – | –
B3 | 6.76 | 0.000841 | 125000 | 1.6 | 0.000193 | 121000 | < 0.01 | 0.016 | – | – | – | – | – | – | – | – | –
B4 | 3.66 | 0.00065 | 178000 | 1.28 | 0.000184 | 144000 | < 0.01 | 0.011 | – | – | – | – | – | – | – | – | –
B5 | 19.7 | 0.000874 | 44300 | 1.51 | 0.000166 | 110000 | < 0.01 | 0.053 | – | – | – | – | – | – | – | – | –
B6 | – | – | – | – | – | – | – | – | – | – | – | 0.69 | 9.87e-05 | 149000 | 3.9 | 0.00045 | 115000

— patent US20230322908A1 (AC IMMUNE, published 2023)
